B1: [(1S)-1-Carboxy-3-methylbutyl]carbamoyl-[Gln23, D-Pro24, Pya(4)26, Cha27,36, Aib28,31, Lys30]-PYY(23-36) (peptide)
peptide: X4-Q[dP]R[4Pal][Cha][Aib]NK[Aib]TRQR[Cha]-NH2
modifications: not fully specified; printed as [(1S)-1-Carboxy-3-methylbutyl]carbamoyl-[Gln23, D-Pro24, Pya(4)26, Cha27,36, Aib28,31, Lys30]-PYY(23-36)
B2: Ac-[D-Pro24, Har25, Cha27,36, Aib28,31, Lys30]-PYY(23-36) (peptide)
peptide: Ac-S[dP][hArg]H[Cha][Aib]NK[Aib]TRQR[Cha]-NH2
SMILES: CC(=O)N[C@@H](CO)C(=O)N1CCC[C@@H]1C(=O)N[C@@H](CCCCNC(=N)N)C(=O)N[C@@H](Cc1c[nH]cn1)C(=O)N[C@@H](CC1CCCCC1)C(=O)NC(C)(C)C(=O)N[C@@H](CC(N)=O)C(=O)N[C@@H](CCCCN)C(=O)NC(C)(C)C(=O)N[C@H](C(=O)N[C@@H](CCCNC(=N)N)C(=O)N[C@@H](CCC(N)=O)C(=O)N[C@@H](CCCNC(=N)N)C(=O)N[C@@H](CC1CCCCC1)C(N)=O)[C@@H](C)O
B3: [(1S)-1-Carboxy-3-methylbutyl]carbamoyl-[Glu23, D-Pro24, Pya(4)26, Cha27,36, Aib28,31, Lys30]-PYY(23-36) (peptide)
peptide: X4-E[dP]R[4Pal][Cha][Aib]NK[Aib]TRQR[Cha]-NH2
SMILES: CC(C)C[C@H](NC(=O)N[C@@H](CCC(=O)O)C(=O)N1CCC[C@@H]1C(=O)N[C@@H](CCCNC(=N)N)C(=O)N[C@@H](Cc1ccncc1)C(=O)N[C@@H](CC1CCCCC1)C(=O)NC(C)(C)C(=O)N[C@@H](CC(N)=O)C(=O)N[C@@H](CCCCN)C(=O)NC(C)(C)C(=O)N[C@H](C(=O)N[C@@H](CCCNC(=N)N)C(=O)N[C@@H](CCC(N)=O)C(=O)N[C@@H](CCCNC(=N)N)C(=O)N[C@@H](CC1CCCCC1)C(N)=O)[C@@H](C)O)C(=O)O
B4: Ac-[Phe22, D-Pro24, Pya(4)26, Cha27,36, Aib28,31, Lys30]-PYY(22-36) (peptide)
peptide: Ac-FS[dP]R[4Pal][Cha][Aib]NK[Aib]TRQR[Cha]-NH2
SMILES: CC(=O)N[C@@H](Cc1ccccc1)C(=O)N[C@@H](CO)C(=O)N1CCC[C@@H]1C(=O)N[C@@H](CCCNC(=N)N)C(=O)N[C@@H](Cc1ccncc1)C(=O)N[C@@H](CC1CCCCC1)C(=O)NC(C)(C)C(=O)N[C@@H](CC(N)=O)C(=O)N[C@@H](CCCCN)C(=O)NC(C)(C)C(=O)N[C@H](C(=O)N[C@@H](CCCNC(=N)N)C(=O)N[C@@H](CCC(N)=O)C(=O)N[C@@H](CCCNC(=N)N)C(=O)N[C@@H](CC1CCCCC1)C(N)=O)[C@@H](C)O
B5: Ac-[Lys22,30, D-Pro24, Pya(4)26, Cha27,36, Aib28,31]-PYY(22-36) (peptide)
peptide: Ac-KS[dP]R[4Pal][Cha][Aib]NK[Aib]TRQR[Cha]-NH2
SMILES: CC(=O)N[C@@H](CCCCN)C(=O)N[C@@H](CO)C(=O)N1CCC[C@@H]1C(=O)N[C@@H](CCCNC(=N)N)C(=O)N[C@@H](Cc1ccncc1)C(=O)N[C@@H](CC1CCCCC1)C(=O)NC(C)(C)C(=O)N[C@@H](CC(N)=O)C(=O)N[C@@H](CCCCN)C(=O)NC(C)(C)C(=O)N[C@H](C(=O)N[C@@H](CCCNC(=N)N)C(=O)N[C@@H](CCC(N)=O)C(=O)N[C@@H](CCCNC(=N)N)C(=O)N[C@@H](CC1CCCCC1)C(N)=O)[C@@H](C)O
B6: Ac-[D-Pro24, Iva25, Pya(4)26, Cha27,36, Leu(Me)28, Lys30, Aib31]-PYY(23-36) (peptide)
peptide: Ac-S[dP][Iva][4Pal][Cha][tBuAla]NK[Aib]TRQR[Cha]-NH2
SMILES: CC[C@](C)(NC(=O)[C@H]1CCCN1C(=O)[C@H](CO)NC(C)=O)C(=O)N[C@@H](Cc1ccncc1)C(=O)N[C@@H](CC1CCCCC1)C(=O)N[C@@H](CC(C)(C)C)C(=O)N[C@@H](CC(N)=O)C(=O)N[C@@H](CCCCN)C(=O)NC(C)(C)C(=O)N[C@H](C(=O)N[C@@H](CCCNC(=N)N)C(=O)N[C@@H](CCC(N)=O)C(=O)N[C@@H](CCCNC(=N)N)C(=O)N[C@@H](CC1CCCCC1)C(N)=O)[C@@H](C)O
B7: Ac-[D-Pro24, Arg(Me)25, Cha27,36, Aib28,31, Lys30]-PYY(23-36) (peptide)
peptide: Ac-S[dP][Arg(Me)]H[Cha][Aib]NK[Aib]TRQR[Cha]-NH2
SMILES: CNC(=N)NCCC[C@H](NC(=O)[C@H]1CCCN1C(=O)[C@H](CO)NC(C)=O)C(=O)N[C@@H](Cc1c[nH]cn1)C(=O)N[C@@H](CC1CCCCC1)C(=O)NC(C)(C)C(=O)N[C@@H](CC(N)=O)C(=O)N[C@@H](CCCCN)C(=O)NC(C)(C)C(=O)N[C@H](C(=O)N[C@@H](CCCNC(=N)N)C(=O)N[C@@H](CCC(N)=O)C(=O)N[C@@H](CCCNC(=N)N)C(=O)N[C@@H](CC1CCCCC1)C(N)=O)[C@@H](C)O
B8: Ac-[D-Pro24, Lys(Ac)25, Pya(4)26, Cha27,36, Aib28,31, Lys30]-PYY(23-36) (peptide)
peptide: Ac-S[dP]K(Ac)[4Pal][Cha][Aib]NK[Aib]TRQR[Cha]-NH2
SMILES: CC(=O)NCCCC[C@H](NC(=O)[C@H]1CCCN1C(=O)[C@H](CO)NC(C)=O)C(=O)N[C@@H](Cc1ccncc1)C(=O)N[C@@H](CC1CCCCC1)C(=O)NC(C)(C)C(=O)N[C@@H](CC(N)=O)C(=O)N[C@@H](CCCCN)C(=O)NC(C)(C)C(=O)N[C@H](C(=O)N[C@@H](CCCNC(=N)N)C(=O)N[C@@H](CCC(N)=O)C(=O)N[C@@H](CCCNC(=N)N)C(=O)N[C@@H](CC1CCCCC1)C(N)=O)[C@@H](C)O
B9: Tetrahydro-2H-pyran-4-yl-carbamoyl-[Glu23, D-Pro24, Pya(4)26, Cha27,36, Aib28,31, Lys30]-PYY(23-36) (peptide)
peptide: X10-E[dP]R[4Pal][Cha][Aib]NK[Aib]TRQR[Cha]-NH2
SMILES: C[C@@H](O)[C@H](NC(=O)C(C)(C)NC(=O)[C@H](CCCCN)NC(=O)[C@H](CC(N)=O)NC(=O)C(C)(C)NC(=O)[C@H](CC1CCCCC1)NC(=O)[C@H](Cc1ccncc1)NC(=O)[C@H](CCCNC(=N)N)NC(=O)[C@H]1CCCN1C(=O)[C@H](CCC(=O)O)NC(=O)NC1CCOCC1)C(=O)N[C@@H](CCCNC(=N)N)C(=O)N[C@@H](CCC(N)=O)C(=O)N[C@@H](CCCNC(=N)N)C(=O)N[C@@H](CC1CCCCC1)C(N)=O
B10: Ac-[Leu22, D-Pro24, Pya(4)26, Cha27,36, Aib28,31, Lys30]-PYY(22-36) (peptide)
peptide: Ac-LS[dP]R[4Pal][Cha][Aib]NK[Aib]TRQR[Cha]-NH2
SMILES: CC(=O)N[C@@H](CC(C)C)C(=O)N[C@@H](CO)C(=O)N1CCC[C@@H]1C(=O)N[C@@H](CCCNC(=N)N)C(=O)N[C@@H](Cc1ccncc1)C(=O)N[C@@H](CC1CCCCC1)C(=O)NC(C)(C)C(=O)N[C@@H](CC(N)=O)C(=O)N[C@@H](CCCCN)C(=O)NC(C)(C)C(=O)N[C@H](C(=O)N[C@@H](CCCNC(=N)N)C(=O)N[C@@H](CCC(N)=O)C(=O)N[C@@H](CCCNC(=N)N)C(=O)N[C@@H](CC1CCCCC1)C(N)=O)[C@@H](C)O

In US20120172293A1 (Takeda / Millennium, published 2012) one finds GBA EC50 Ratio ([35S]GTPγS binding) (EC50 compound/EC50 PYY(3-36)) and IC50 Ratio (IC50 compound/IC50 PYY(3-36)) data, which are given here for ten molecules.

Non-standard residues stand in square brackets, D forms with d. *: point of attachment. X4 = ((1S)-1-Carboxy-3-methylbutyl)carbamoyl, CC(C)C[C@H](NC(=O)*)C(=O)O; X10 = Tetrahydro‑2H‑pyran‑4‑yl‑carbamoyl, O=C(NC1CCOCC1)*; Arg(Me) = CNC(=N)NCCC[C@H](N)C(=O)O; hArg = N=C(N)NCCCC[C@H](N)C(=O)O; tBuAla = CC(C)(C)C[C@H](N)C(=O)O; 4Pal = N[C@@H](Cc1ccncc1)C(=O)O; Cha = N[C@@H](CC1CCCCC1)C(=O)O; Iva = CC[C@](C)(N)C(=O)O; Aib = CC(C)(N)C(=O)O

Sequence of human Y2 receptor (human) (P49146 whole entry): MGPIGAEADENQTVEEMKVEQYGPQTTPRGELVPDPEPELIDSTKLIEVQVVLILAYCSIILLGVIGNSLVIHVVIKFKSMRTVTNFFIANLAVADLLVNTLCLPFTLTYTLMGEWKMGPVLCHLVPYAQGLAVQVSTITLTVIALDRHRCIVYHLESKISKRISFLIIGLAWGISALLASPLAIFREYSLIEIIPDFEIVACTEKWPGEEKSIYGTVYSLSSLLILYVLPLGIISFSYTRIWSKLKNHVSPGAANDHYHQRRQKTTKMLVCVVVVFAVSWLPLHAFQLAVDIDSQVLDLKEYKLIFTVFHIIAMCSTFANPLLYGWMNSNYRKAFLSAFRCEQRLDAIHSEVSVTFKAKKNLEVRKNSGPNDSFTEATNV

The first assay has as its target human Y2 receptor (human) (UniProt P49146). The experiment in a line: cell-based or functional assay.
For B1, the GBA EC50 Ratio ([35S]GTPγS binding) (EC50 compound/EC50 PYY(3-36)) came to 1.3.
Same read-out and setting: the same measure for B2: 2.7.
Same read-out and setting: the same measure for B3: 2.5; for B4: 0.89.
Same read-out and setting: the same measure for B5: 1; for B6: 1.2.
Turning to B7, the GBA EC50 Ratio ([35S]GTPγS binding) (EC50 compound/EC50 PYY(3-36)) came to 1.8.
The same measure, in the same setting: the same measure for B8: 4.2; for B9: 1.6.
The same measure, in the same setting: the same measure for B10: 1.

For a further assay the target is unchanged. The experiment in a line: RBA: displacement of [125I]-PYY from hY2R/CHO membranes. (In general: Loss of bound radioactivity is the signal in a displacement assay; it reports binding, not function.)
As for B1, the IC50 Ratio (IC50 compound/IC50 PYY(3-36)) was 0.93.
In the case of B2, the IC50 Ratio (IC50 compound/IC50 PYY(3-36)) was determined as 1.2.
Same read-out and setting: the same measure for B3: 2.2; for B4: 1.2; for B5: 1.1.
The same measure, in the same setting: the same measure for B6: 0.76.
Turning to B7, the IC50 Ratio (IC50 compound/IC50 PYY(3-36)) was 1.8.
As for B8, the IC50 Ratio (IC50 compound/IC50 PYY(3-36)) is 6.6.
Still for that read-out and setting: the same measure for B9: 1.1; for B10: 1.2.
